This note sets out measurements from US20250075191A1, “MODIFIED BIOLUMINESCENT ENZYMES” (Light Bio, Inc., priority 2023, published 2025).

Positions count from the first letter of the chain named. Names and notes keep the numbering of the source.

This test relates to HEK293 cells. Briefly: Hispidin hydroxylase activity in HEK293 cells co-transfected with nnLuz_v3, hispidin added, normalized to HiBiT. The format is cell-based. The procedure:
A library of amino acid substitutions was created applying mutagenesis to a gene encoding the hispidin hydroxylase derived from Neonothopanus nambi (SEQ ID NO: 12). This was achieved by the same method as described in Example 1. Activity was evaluated in HEK293 cells co-transfected with a gene encoding nnLuz_v3. Bioluminescence was measured as described in Example 1, except with addition of hispidin instead of luciferin.
To estimate specific activity, both luciferase activity and HiBiT were measure for each sample (see Example 2). Activity of each variant was then normalized to the expression level (i.e., luciferase bioluminescence/HiBiT signal). Substitutions at 28 positions were examined by this method.

B1: D37E: nnH3H hispidin hydroxylase variant with single substitution D37E (protein, listed as Neonothopanus nambi)
chain: MASFENSLSVLIVGAGLGGLAAAIALRRQGHVVKIYESSSFKAELGAGLAVPPNTLRSLQQLGCNTENLNGVDNLCFTAMGYDGSVGMMNNMTDYREAYGTSWIMVHRVDLHNELMRVALDPGGLGPPATLHLNHRVTFCDVDACTVTFTNGTTQSADLIVGADGIRSTIRRFVLEEDVTVPASGIVGFRWLVQADALDPYPELDWIVKKPPLGARLISTPQNPQSGVGLADRRTIIIYACRGGTMVNVLAVHDDERDQNTADWSVPASKDDLFRVFHDYHPRFRRLLELAQDINLWQMRVVPVLKKWVNKRVCLLGDAAHASLPTLGQGFGMGLEDAVALGTLLPKGTTASQIETRLAVYEQLRKDRAEFVAAESYEEQYVPEMRGLYLRSKELRDRVMGYDIKVESEKVLETLLRSSNSA
As for B1, the “bioluminescence over parental enzyme nnH3H_WT, normalized to expression level (HiBiT)” value is on record as “significantly increased bioluminescence”.

B2: M385K: nnH3H hispidin hydroxylase variant with single substitution M385K (protein, listed as Neonothopanus nambi)
chain: B1 chain with E37D, M385K
For B2, the “bioluminescence over parental enzyme nnH3H_WT, normalized to expression level (HiBiT)” value was “significantly increased bioluminescence”.

B3: A183P: nnH3H hispidin hydroxylase variant with single substitution A183P (protein, listed as Neonothopanus nambi)
chain: B1 chain with E37D, A183P
Consider B3, for which the “bioluminescence over parental enzyme nnH3H_WT, normalized to expression level (HiBiT)” value is listed as “significantly increased bioluminescence”.

B4: S323M: nnH3H hispidin hydroxylase variant with single substitution S323M (protein, listed as Neonothopanus nambi)
chain: B1 chain with E37D, S323M
B4: the “bioluminescence over parental enzyme nnH3H_WT, normalized to expression level (HiBiT)” value is “significantly increased bioluminescence”.

B5: V181I: nnH3H hispidin hydroxylase variant with single substitution V181I (protein, listed as Neonothopanus nambi)
chain: B1 chain with E37D, V181I
As to B5, the “bioluminescence over parental enzyme nnH3H_WT, normalized to expression level (HiBiT)” value was “significantly increased bioluminescence”.
